First the molecules themselves.
B1: Translocated intimin receptor Tir (Escherichia coli O127:H6 (strain E2348/69 / EPEC)), B7UM99 (parent)
chain: MPIGNLGNNVNGNHLIPPAPPLPSQTDGAARGGTGHLISSTGALGSRSLFSPLRNSMADSVDSRDIPGLPTNPSRLAAATSETCLLGGFEVLHDKGPLDILNTQIGPSAFRVEVQADGTHAAIGEKNGLEVSVTLSPQEWSSLQSIDTEGKNRFVFTGGRGGSGHPMVTVASDIAEARTKILAKLDPDNHGGRQPKDVDTRSVGVGSASGIDDGVVSETHTSTTNSSVRSDPKFWVSVGAIAAGLAGLAATGIAQALALTPEPDDPTTTDPDQAANAAESATKDQLTQEAFKNPENQKVNIDANGNAIPSGELKDDIVEQIAQQAKEAGEVARQQAVESNAQAQQRYEDQHARRQEELQLSSGIGYGLSSALIVAGGIGAGVTTALHRRNQPAEQTTTTTTHTVVQQQTGGNTPAQGGTDATRAEDASLNRRDSQGSVASTHWSDSSSEVVNPYAEVGGARNSLSAHQPEEHIYDEVAADPGYSVIQNFSGSGPVTGRLIGTPGQGIQSTYALLANSGGLRLGMGGLTSGGESAVSSVNAAPTPGPVRFV

The experiment covers variants of B1. Conditions: with anxa2_human ANXA2, P07355.
Chain of anxa2_human ANXA2, P07355 (P07355 whole entry): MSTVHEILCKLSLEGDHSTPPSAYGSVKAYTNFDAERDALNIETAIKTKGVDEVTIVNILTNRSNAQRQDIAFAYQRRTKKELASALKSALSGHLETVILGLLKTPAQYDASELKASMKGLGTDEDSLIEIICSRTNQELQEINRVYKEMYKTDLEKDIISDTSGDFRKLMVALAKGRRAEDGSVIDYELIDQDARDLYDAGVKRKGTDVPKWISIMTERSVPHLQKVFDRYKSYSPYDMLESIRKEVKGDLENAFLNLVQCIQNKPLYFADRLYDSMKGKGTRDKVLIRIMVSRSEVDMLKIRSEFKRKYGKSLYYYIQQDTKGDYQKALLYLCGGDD
For the variant Y474S, the “effect of a mutation on the interaction” value is given as “with no effect”.

The record behind these values is IntAct's records for PubMed 22587461.
